According to patent US20250075006A1 (SHANDONG SIMCERE BIOPHARMACEUTICAL, published 2025):

Columns and labels:
[1] = biological target: T1, Cyno GUCY2C ECD (his-tagged cynomolgus monkey GUCY2C protein extracellular domain fusion protein) (cynomolgus monkey, UniProt P25092 24-430 (human entry)); assay: ELISA, plate coated with monkey GUCY2C-his, OD450
T1 construct: also called monkey GUCY2C-his; monkey GUCY2C-His
T1 chain: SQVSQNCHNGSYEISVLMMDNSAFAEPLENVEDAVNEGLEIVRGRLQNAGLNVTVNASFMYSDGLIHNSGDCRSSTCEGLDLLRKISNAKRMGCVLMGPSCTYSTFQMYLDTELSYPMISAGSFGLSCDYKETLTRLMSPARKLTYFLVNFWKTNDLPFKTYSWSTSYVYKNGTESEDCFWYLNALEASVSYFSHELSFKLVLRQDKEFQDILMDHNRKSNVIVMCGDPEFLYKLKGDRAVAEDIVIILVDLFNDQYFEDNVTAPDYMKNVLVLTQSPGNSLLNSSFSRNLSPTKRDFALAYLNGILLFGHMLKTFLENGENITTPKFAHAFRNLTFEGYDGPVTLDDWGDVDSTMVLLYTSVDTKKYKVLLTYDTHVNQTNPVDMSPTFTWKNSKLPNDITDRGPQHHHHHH
Description: (§1) A human GUCY2C-his protein was diluted with PBS to a final concentration of 2 μg/mL and then added to a 96-well ELISA plate at 50 μL/well. The plate was sealed with a plastic film and incubated at 4° C. overnight. The next day, the plate was washed 2 times with PBST, and a blocking buffer [PBS+2% (w/w) BSA] was added for blocking at room temperature for 2 h. The blocking buffer was discarded, and the recombinant antibody and positive and negative control antibody with a starting concentration of 100 nM serially diluted by 3 folds were added at 50 μL/well. After incubation at 37° C. for 1 h, the plate was washed 3 times with PBST. A horseradish peroxidase (HRP)—labeled secondary antibody (purchased from Merck, Cat. No. AP113P) was added for incubation at 37° C. for 1 h, and the plate was washed 5 times with PBST. A TMB substrate was added at 50 μL/well for incubation at room temperature for 10 min, and then a stop solution (1.0 M HCl) was added at 50 μL/well. The OD450 nm values were read by an ELISA plate reader (Multimode Plate Reader, EnSight, purchased from Perkin Elmer).
(§2) The monkey GUCY2C-his and murine GUCY2C-his proteins were subjected to ELISA and data analysis according to the method described in Example 4.2. The recombinant antibodies Lab306-huFc, Lab322-huFc, and Lab323-huFc have a relatively good binding activity with the monkey GUCY2C-his protein. […]

[2] = biological target: T2, Human GUCY2C ECD (his-tagged human GUCY2C protein extracellular domain fusion protein) (human, UniProt P25092 24-430); assay: ELISA, plate coated with human GUCY2C-his, OD450
T2 construct: also called human GUCY2C-his; human GUCY2C-His
Description: as §1

[3] = biological target: T2, Human GUCY2C ECD (his-tagged human …); assay: SPR Biacore, antibody on Protein A, antigen injected
Description: The strength of antibody-antigen binding was assayed with a BIAcore 8K instrument using a Protein A capture method. First, Protein A was immobilized onto a CM4 chip (purchased from GE, BR-1005-34) using an amino coupling method. According to the instruction of the Amine Coupling Kit (purchased from GE, BR100633), NHS and EDC were mixed with HBS-EP+pH 7.4 as a mobile phase to activate the chip for about 600 s; the Protein A was diluted to 50 μg/mL with 10 mM sodium acetate (pH 4.5) and injected for 600 s, and finally, the remaining activated sites were blocked with ethanolamine. Then, the affinity of the antibody for the antigen was assayed using a multi-cycle kinetic method; in each cycle, first, the antibody to be tested was captured using the Protein A chip, and then a single concentration of antigen protein was injected. The association and dissociation processes of the antibody with the antigen protein were recorded, and finally, the chip was regenerated using Glycine pH 1.5, wherein the mobile phase was HBS-EP+(10 mM HEPES, 150 mM NaCl, 3 mM EDTA, 0.05% surfactant P20), the flow rate was 30 μL/min, the regeneration time was 30 s, and the assay temperature was 25° C. Finally, according to a 1:1 binding model, the data were analyzed, and the antibody-antigen binding kinetics parameters, including the association rate constant Ka, the dissociation rate constant Kd, the equilibrium dissociation constant KD, and the maximum binding signal Rmax, were fitted.
After the finally obtained various humanized antibodies were expressed and purified, the affinities of the humanized antibodies for the human and monkey GUCY2C proteins were separately assayed according to the method in Example 4.6.

[4] = biological target: T3, Mouse GUCY2C ECD (his-tagged mouse GUCY2C protein extracellular domain fusion protein) (mouse, UniProt Q3UWA6 20-433); assay: ELISA, plate coated with mouse GUCY2C-his, OD450
T3 construct: also called murine GUCY2C-his; murine GUCY2C-His
T3 sequence: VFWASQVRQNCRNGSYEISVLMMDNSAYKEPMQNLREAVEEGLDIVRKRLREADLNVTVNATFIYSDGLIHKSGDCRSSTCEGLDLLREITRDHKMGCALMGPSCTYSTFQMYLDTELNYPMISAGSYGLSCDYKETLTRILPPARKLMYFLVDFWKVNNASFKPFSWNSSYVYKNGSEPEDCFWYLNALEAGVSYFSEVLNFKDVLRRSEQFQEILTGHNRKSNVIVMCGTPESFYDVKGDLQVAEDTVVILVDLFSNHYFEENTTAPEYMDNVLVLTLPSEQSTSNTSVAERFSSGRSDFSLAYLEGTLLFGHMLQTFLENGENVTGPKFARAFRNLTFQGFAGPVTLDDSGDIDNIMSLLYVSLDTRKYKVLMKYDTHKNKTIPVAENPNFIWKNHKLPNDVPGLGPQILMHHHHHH
Description: as §1, §2

T2 sequence (P25092 other isoform, or with tags, fused parts or gaps): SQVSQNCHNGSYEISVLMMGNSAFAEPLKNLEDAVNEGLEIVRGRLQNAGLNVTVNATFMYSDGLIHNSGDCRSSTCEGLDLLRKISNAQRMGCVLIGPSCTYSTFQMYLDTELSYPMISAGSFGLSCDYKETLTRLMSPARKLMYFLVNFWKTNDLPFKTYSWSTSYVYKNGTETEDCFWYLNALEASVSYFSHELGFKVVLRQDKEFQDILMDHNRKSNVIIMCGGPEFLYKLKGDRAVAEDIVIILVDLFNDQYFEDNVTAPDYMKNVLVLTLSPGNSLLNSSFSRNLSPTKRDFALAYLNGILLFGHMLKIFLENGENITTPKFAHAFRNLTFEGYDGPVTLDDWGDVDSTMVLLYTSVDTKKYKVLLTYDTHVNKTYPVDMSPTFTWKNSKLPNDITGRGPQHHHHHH

B1: PF1608-hIgG1 (antibody, V domains shown)
VH: EVQLVESGGGLVQPGGSLRLSCAASGFTFSSYWMHWVRQAPGKGLEWIGEIKPSNELTNVHEKFKDRFTISVDKAKNSAYLQMNSLRAEDTAVYYCTRTITTTEGYWFFDVWGQGTLVTVSS
VL: DIQLTQSPSSLSASVGDRVTITCRASESVDYYGSSLLQWYQQKPGKAPKLLIYAASKLASGVPSRFSGSGSGTDFTLTISSLQPEDFATYYCQQTRKAYTFGQGTKLEIKR
notes: also called PF1608-hlgG1; positive control antibody
[1]
  EC50 (read off the curve): ~0.08 nM
[2]
  EC50 (read off the curve): ~0.09 nM
[3]
  Kd: 1.63 nM
  koff: 0.000258 s⁻¹
  kon: 158000 M⁻¹ s⁻¹
[4]
  EC50 (read off the curve): ~0.05 nM

B2: 5F9-hIgG1 (antibody, V domains shown)
VH: QVQLQQWGAGLLKPSETLSLTCAVFGGSFSGYYWSWIRQPPGKGLEWIGEINHRGNTNDNPSLKSRVTISVDTSKNQFALKLSSVTAADTAVYYCARERGYTYGNFDHWGQGTLVTVSS
VL: EIVMTQSPATLSVSPGERATLSCRASQSVSRNLAWYQQKPGQAPRLLIYGASTRATGIPARFSGSGSGTEFTLTIGSLQSEDFAVYYCQQYKTWPRTFGQGTNVEIKR
notes: also called positive control antibody
[1]
  EC50 (read off the curve): ~0.08 nM
[2]
  EC50 (read off the curve): ~0.05 nM
[3]
  Kd: 4.05 nM
  koff: 0.000565 s⁻¹
  kon: 140000 M⁻¹ s⁻¹
[4]
  binding result: no binding (tested: 100 nM)
